Results taken from patent publication US20220144895A1, “DE NOVO DESIGN OF TUNABLE PH-DRIVEN CONFORMATIONAL SWITCHES” (University of Washington, priority 2019, published 2022).

B1: pRO-2 I70N: pRO-2 mutant, SEQ ID NO: 21-22 (protein)
chain 1: MGSHHHHHHGSGSENLYFQGSEYEIRKALEELKAATAELKRATASLRAITEELKKNPSEDALVEHNRAIVEHNAIIVEHNRIIAAVLELNVRAIK
chain 2: GSEYEIRKALEELKAATAELKRATASLRAITEELKKNPSEDALVEHNRAIVEHNAIIVEHNRIIAAVLELNVRAIK
B2: SEQ ID NO: 40: as SEQ ID NO: 39 but third asparagine network mutated to all hydrophobics (protein)
chain: GSEEEIKRLLEELRKALEELRRITKELDDLSKELRVGGSGSGSLVPRGSGSGSGSHALVEHNKLISEHNRIVVEVLRIIAEILEAIARVGGSGSGSVEVERILDELRKALEELDRVTKELKKLTEELDVGGSGSGSLVPRGSGSGSGSVEALVRHNVLITRHNDIVVKVLDIIAKILKLIAEAVGGSGSGSELERILRELEEALKELRKATEELRRLSEELKVGGSGSGSLVPRGSGSGSGSHEALVRHNEAIVEHNKIVVKVLDIIAKILELITERI
B3: SEQ ID NO: 39: similar to pRO2.3, Thrombin cleavage sites on each loop, destabilizing I56V mutation (protein)
chain: GSEEEIKRLLEELRKSSEELRRITKELDDLSKELRVGGSGSGSLVPRGSGSGSGSHALVEHNKLISEHNRIVVENNRIIVEILEAIARVGGSGSGSVEVERILDELRKSSEELDRVTKELKKLTEELDVGGSGSGSLVPRGSGSGSGSVEALVRHNVLITRHNDIVVKNNDIINKILKLIAEAVGGSGSGSELERILRELEESTKELRKATEELRRLSEELKVGGSGSGSLVPRGSGSGSGSHEALVRHNEAIVEHNKIVVKNNDIIVKILELITERI
B4: pRO-3: designed homotrimer, SEQ ID NO: 23-24 (protein)
chain 1: MGSHHHHHHGSGSENLYFQGSEALYELEKALRELKKATAALERATAELKKNPSEDALVEHNRLIAAHNKIIAEVLRIIAKVLK
chain 2: GSEALYELEKALRELKKATAALERATAELKKNPSEDALVEHNRLIAAHNKIIAEVLRIIAKVLK

Assay: Fluorescence dequenching liposome leakage (liposome disruption) assay
Assay type: biochemical
Details: for pH-dependent liposome disruption: 2.5 μM protein with respect to monomer, SRB leakage
Protocol: Liposomes composed of DOPC (1,2-dioleoyl-sn-glycero-3-phosphocholine), DOPC with 25% cholesterol (molar ratio to DOPC), 3:1 DOPC:POPS (1-palmitoyl-2-oleoyl-sn-glycero-3-phospho-L-serine), and 3:1 DOPC:POPS with 25% cholesterol were prepared identically to a final concentration of 5 mM total lipid as previously described (32); lipids from Avanti Polar Lipids. Lipids solubilized in chloroform were dried under nitrogen gas and stored under vacuum for a minimum of 2 hours to remove residual solvent. The dried lipid film was the resuspended in Tris buffer (10 mM Tris, 150 mM NaCl, and 0.02% NaN3 pH 8.0) containing 25 mM Sulforhodamine B (SRB) fluorophore (Sigma) and subjected to 10 sequential freeze thaw cycles in liquid nitrogen. Liposomes were extruded 29 times through 100 nm pore size polycarbonate filters (Avanti Polar Lipids) and purified from free fluorophore using a PD-10 gel filtration column (GE Healthcare) into storage buffer (10 mM Tris, 150 mM NaCl, and 0.02% NaN3 pH 8.0). Liposome size and homogeneity was analyzed by dynamic light scattering (DLS) using a Dynapro Nanostar™ DLS (Wyatt Technologies). On average liposome diameter ranged from 120-130 nm with low polydispersity. Liposomes were stored at 4° C. and used within 5 days of preparation.
Liposome disruption and content leakage was analyzed by fluorescence spectroscopy as previously described (32). […] The solution was rapidly acidified to the target pH by addition of a fixed volume of acidification buffer and incubated for 20 minutes. […] SRB fluorescence is independent of pH within the ranges used here. Finally. Triton X-100 (Sigma) was added to a final concentration of 1% to fully disrupt liposomes. Liposome disruption as indicated by content leakage and SRB dequenching was normalized using the formula [Fω−F(0)]/[F(Max)−F(0)] where F(0) is the average fluorescence intensity before acidification and F(Max) is the average fluorescence intensity ater addition of Triton X-100. All measurements were collected on a Varian Cary Eclipse spectrophotometer using an excitation/emission pairing of […] and 2.5 nm slit widths at 24° C. Any data plotted together was collected using the sum batch of liposomes.

[1] = fused at its n-terminus to a nanoparticle

Row | Molecule | pH-dependent liposome disruption | kinetics of liposome disruption relative to pRO2.3, nanoparticle fusion [1] | further results
1 | B1 | attenuation of pH-induced liposome disruption | – | pH-dependent liposome disruption (listed as pRO-2170N): attenuates liposome activity
2 | B2 | – | slower kinetics | liposome disruption better than pRO2.3, nanoparticle fusion [1]: 5-10%
3 | B3 | – | slower kinetics | liposome disruption relative to pRO2.3, nanoparticle fusion [1]: close as well as pRO2.3
4 | B4 | caused pH-dependent liposome disruption | – | liposome disruption activity at pH 4.75 (pH 4.75, 2.5 μM protein): shows liposome disruption activity
